Positions of bridges follow the written chain, without caps; N, C: chain ends. No end group written: not given here. COCH2 = acetyl group that carries the bridge
The substances below were run against T1, Recombinant Human FGFR1 alpha (IIIc) Fc Chimera Protein (Homo sapiens, UniProt P11362) (assay: ELISA binding affinity of enzymatically synthesized peptide to FGFR). Conditions: ELISA luminescence signal at 10 nmol/L peptide, SEQ ID NO: 239 standardized to 1; enzyme synthesis product.
T1 construct: purchased R&D systems 658-FR-050
T1 sequence (P11362 with tags, fused parts or gaps limits assumed): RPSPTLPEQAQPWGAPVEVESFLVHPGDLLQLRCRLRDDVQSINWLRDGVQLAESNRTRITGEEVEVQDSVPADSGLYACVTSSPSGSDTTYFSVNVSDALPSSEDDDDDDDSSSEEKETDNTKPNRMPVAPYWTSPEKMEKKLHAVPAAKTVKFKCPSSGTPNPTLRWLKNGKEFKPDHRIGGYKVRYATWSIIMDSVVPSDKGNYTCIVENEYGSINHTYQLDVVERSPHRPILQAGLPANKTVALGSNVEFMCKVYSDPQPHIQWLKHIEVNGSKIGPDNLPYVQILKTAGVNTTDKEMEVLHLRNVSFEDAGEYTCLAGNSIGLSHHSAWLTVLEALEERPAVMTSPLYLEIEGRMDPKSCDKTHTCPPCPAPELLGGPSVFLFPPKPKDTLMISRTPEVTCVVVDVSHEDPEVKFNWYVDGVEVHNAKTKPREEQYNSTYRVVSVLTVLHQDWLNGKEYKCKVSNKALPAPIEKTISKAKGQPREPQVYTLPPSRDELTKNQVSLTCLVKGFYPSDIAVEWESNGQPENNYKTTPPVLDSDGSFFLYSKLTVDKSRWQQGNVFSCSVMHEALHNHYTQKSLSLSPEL
Summary of the method: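 Cell-free PUREfrex-translated cyclic peptides (Myc/HiBiT-tagged, quantified by HiBiT luminescence) bound 3 h at room temperature to immobilized FGFR1α(IIIc)-Fc, detected with anti-Myc and chemiluminescence. FGFR-specific signal at 10 nmol/L normalized to a reference cyclic peptide and graded A–D.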
For “251 (TCWTAWQWFGHWVPFVAK(COCH2)T; thioether 2-18 (inferred)) [compound 251]”, the “Evaluation result of binding affinity to FGFR” value (from here on “Evaluation result”) was “C (0.1 or more and less than 0.5)”. For “252 (RCVYSFDPARYPYHLKK(COCH2)V; thioether 2-17 (inferred)) [compound 252]”, the “Evaluation result” value was “A (0.7 or more)”. With “253 (TCFSPGQIWIWTHLVTAIRNK(COCH2)T; thioether 2-21 (inferred)) [compound 253]” the “Evaluation result” value was “B (0.5 or more and less than 0.7)”. For “254 (LCVYTFNWQQKFGHHLTK(COCH2)I; thioether 2-18 (inferred)) [compound 254]”, the “Evaluation result” value was “C (0.1 or more and less than 0.5)”. “255 (FCTLWQFGNLVWTHESPFIK(COCH2)Q; thioether 2-20 (inferred)) [compound 255]” was tested, and the “Evaluation result” value was “C (0.1 or more and less than 0.5)”. With “256 (DCVYQYDRNAHYWDTALVK(COCH2)V; thioether 2-19 (inferred)) [compound 256]” the “Evaluation result” value was “A (0.7 or more)”. In the case of “257 (FCAWVVDYQELHQFWSIVQK(COCH2)I; thioether 2-20 (inferred)) [compound 257]”, the “Evaluation result” value is reported as “C (0.1 or more and less than 0.5)”. In the case of “258 (VCVRPIFIFSFRAPFNAVDWK(COCH2)N; thioether 2-21 (inferred)) [compound 258]”, the “Evaluation result” value is reported as “A (0.7 or more)”. “259 (TCNIWQFNPAARWGFHLVYK(COCH2)Y; thioether 2-20 (inferred)) [compound 259]” was tested, and the “Evaluation result” value was “C (0.1 or more and less than 0.5)”. For “260 (ICREVIVGSLYTWDGNRGFFKV; Description of Artificial Sequence: Cyclic peptide) [compound 260]”, the “Evaluation result” value was “C (0.1 or more and less than 0.5)”. In the case of “261 (LCYINLFTHTKV; Description of Artificial Sequence: Cyclic peptide) [compound 261]”, the “Evaluation result” value is reported as “C (0.1 or more and less than 0.5)”. With “262 (WCNFANVWTFNKS; Description of Artificial Sequence: Cyclic peptide) [compound 262]” the “Evaluation result” value was “C (0.1 or more and less than 0.5)”. In the case of “263 (QCYHIIVYTFVKP; Description of Artificial Sequence: Cyclic peptide) [compound 263]”, the “Evaluation result” value is reported as “C (0.1 or more and less than 0.5)”. In the case of “264 (VCIFTWDRVHWPVKV; Description of Artificial Sequence: Cyclic peptide) [compound 264]”, the “Evaluation result” value is reported as “C (0.1 or more and less than 0.5)”. “265 (VCIYTWDRQSWPVKL; Description of Artificial Sequence: Cyclic peptide) [compound 265]” was tested, and the “Evaluation result” value was “B (0.5 or more and less than 0.7)”. With “266 (DCIWQWHPWSGYTKL; Description of Artificial Sequence: Cyclic peptide) [compound 266]” the “Evaluation result” value was “A (0.7 or more)”. For “267 (DCIWQWTPTKSFQKL; Description of Artificial Sequence: Cyclic peptide) [compound 267]”, the “Evaluation result” value was “A (0.7 or more)”. “268 (SCIYQWDYVHWPIKL; Description of Artificial Sequence: Cyclic peptide) [compound 268]” was tested, and the “Evaluation result” value was “C (0.1 or more and less than 0.5)”. In the case of “269 (HCLWQWTPQTHFVKL; Description of Artificial Sequence: Cyclic peptide) [compound 269]”, the “Evaluation result” value is reported as “A (0.7 or more)”. With “270 (QCWWTLQVWSYPFHKH; Description of Artificial Sequence: Cyclic peptide) [compound 270]” the “Evaluation result” value was “C (0.1 or more and less than 0.5)”. For “271 (LCQLGVYTYVALFYKF; Description of Artificial Sequence: Cyclic peptide) [compound 271]”, the “Evaluation result” value was “C (0.1 or more and less than 0.5)”.
